Assay results from paper PMC6423418 (Human Molecular Genetics, 2018).
Several values for one entry are separate records, joined by “and”; a condition that tells them apart may be missing. Identical values can stand only once.

Legend:
[1] = biological target: the molecule itself; test: negative-stain single-particle electron microscopy
[2] = biological target: the molecule itself; test: negative-stain single-particle electron microscopy; remark: listed apart in the source

Protein | stoichiometry N [1] | oligomeric state (%), heptamer [2] [%] | oligomeric state (%), hexamer [2] [%] | oligomeric state (%), broken ring [2] [%]
Wild-type TWINKLE lacking the mitochondrial targeting sequence (residues 1-42) (enzyme, human, UniProt Q96RR1 43-684, looked up) ETLQALDMPVLPVTATEIRQYLRGHGIPFQDGHSCLRALSPFAESSQLKGQTGVTTSFSLFIDKTTGHFLCMTSLAEGSWEDFQASVEGRGDGAREGFLLSKAPEFEDSEEVRRIWNRAIPLWELPDQEEVQLADTMFGLTKVTDDTLKRFSVRYLRPARSLVFPWFSPGGSGLRGLKLLEAKCQGDGVSYEETTIPRPSAYHNLFGLPLISRRDAEVVLTSRELDSLALNQSTGLPTLTLPRGTTCLPPALLPYLEQFRRIVFWLGDDLRSWEAAKLFARKLNPKRCFLVRPGDQQPRPLEALNGGFNLSRILRTALPAWHKSIVSFRQLREEVLGELSNVEQAAGLRWSRFPDLNRILKGHRKGELTVFTGPTGSGKTTFISEYALDLCSQGVNTLWGSFEISNVRLARVMLTQFAEGRLEDQLDKYDHWADRFEDLPLYFMTFHGQQSIRTVIDTMQHAVYVYDICHVIIDNLQFMMGHEQLSTDRIAAQDYIIGVFRKFATDNNCHVTLVIHPRKEDDDKELQTASIFGSAKASQEADNVLILQDRKLVTGPGKRYLQVSKNRFDGDVGVFPLEFNKNSLTFSIPPKNKARLKKIKDDTGPVAKKPSSGKKGATTQNSEICSGQAPTPDQPDTSKRSK | 6 and 7 | 41.1 | 58.9 | 
W315L TWINKLE (enzyme, human, UniProt Q96RR1 43-684, looked up) ETLQALDMPVLPVTATEIRQYLRGHGIPFQDGHSCLRALSPFAESSQLKGQTGVTTSFSLFIDKTTGHFLCMTSLAEGSWEDFQASVEGRGDGAREGFLLSKAPEFEDSEEVRRIWNRAIPLWELPDQEEVQLADTMFGLTKVTDDTLKRFSVRYLRPARSLVFPWFSPGGSGLRGLKLLEAKCQGDGVSYEETTIPRPSAYHNLFGLPLISRRDAEVVLTSRELDSLALNQSTGLPTLTLPRGTTCLPPALLPYLEQFRRIVFWLGDDLRSLEAAKLFARKLNPKRCFLVRPGDQQPRPLEALNGGFNLSRILRTALPAWHKSIVSFRQLREEVLGELSNVEQAAGLRWSRFPDLNRILKGHRKGELTVFTGPTGSGKTTFISEYALDLCSQGVNTLWGSFEISNVRLARVMLTQFAEGRLEDQLDKYDHWADRFEDLPLYFMTFHGQQSIRTVIDTMQHAVYVYDICHVIIDNLQFMMGHEQLSTDRIAAQDYIIGVFRKFATDNNCHVTLVIHPRKEDDDKELQTASIFGSAKASQEADNVLILQDRKLVTGPGKRYLQVSKNRFDGDVGVFPLEFNKNSLTFSIPPKNKARLKKIKDDTGPVAKKPSSGKKGATTQNSEICSGQAPTPDQPDTSKRSK | 7 | 87.1 |  | 12.9
R334Q TWINKLE (enzyme, human, UniProt Q96RR1 43-684, looked up) ETLQALDMPVLPVTATEIRQYLRGHGIPFQDGHSCLRALSPFAESSQLKGQTGVTTSFSLFIDKTTGHFLCMTSLAEGSWEDFQASVEGRGDGAREGFLLSKAPEFEDSEEVRRIWNRAIPLWELPDQEEVQLADTMFGLTKVTDDTLKRFSVRYLRPARSLVFPWFSPGGSGLRGLKLLEAKCQGDGVSYEETTIPRPSAYHNLFGLPLISRRDAEVVLTSRELDSLALNQSTGLPTLTLPRGTTCLPPALLPYLEQFRRIVFWLGDDLRSWEAAKLFARKLNPKRCFLVQPGDQQPRPLEALNGGFNLSRILRTALPAWHKSIVSFRQLREEVLGELSNVEQAAGLRWSRFPDLNRILKGHRKGELTVFTGPTGSGKTTFISEYALDLCSQGVNTLWGSFEISNVRLARVMLTQFAEGRLEDQLDKYDHWADRFEDLPLYFMTFHGQQSIRTVIDTMQHAVYVYDICHVIIDNLQFMMGHEQLSTDRIAAQDYIIGVFRKFATDNNCHVTLVIHPRKEDDDKELQTASIFGSAKASQEADNVLILQDRKLVTGPGKRYLQVSKNRFDGDVGVFPLEFNKNSLTFSIPPKNKARLKKIKDDTGPVAKKPSSGKKGATTQNSEICSGQAPTPDQPDTSKRSK | 7 and 6 | 55.1 | 36.6 | 8.3
S369P TWINKLE (enzyme, human, UniProt Q96RR1 43-684, looked up) ETLQALDMPVLPVTATEIRQYLRGHGIPFQDGHSCLRALSPFAESSQLKGQTGVTTSFSLFIDKTTGHFLCMTSLAEGSWEDFQASVEGRGDGAREGFLLSKAPEFEDSEEVRRIWNRAIPLWELPDQEEVQLADTMFGLTKVTDDTLKRFSVRYLRPARSLVFPWFSPGGSGLRGLKLLEAKCQGDGVSYEETTIPRPSAYHNLFGLPLISRRDAEVVLTSRELDSLALNQSTGLPTLTLPRGTTCLPPALLPYLEQFRRIVFWLGDDLRSWEAAKLFARKLNPKRCFLVRPGDQQPRPLEALNGGFNLSRILRTALPAWHKSIVPFRQLREEVLGELSNVEQAAGLRWSRFPDLNRILKGHRKGELTVFTGPTGSGKTTFISEYALDLCSQGVNTLWGSFEISNVRLARVMLTQFAEGRLEDQLDKYDHWADRFEDLPLYFMTFHGQQSIRTVIDTMQHAVYVYDICHVIIDNLQFMMGHEQLSTDRIAAQDYIIGVFRKFATDNNCHVTLVIHPRKEDDDKELQTASIFGSAKASQEADNVLILQDRKLVTGPGKRYLQVSKNRFDGDVGVFPLEFNKNSLTFSIPPKNKARLKKIKDDTGPVAKKPSSGKKGATTQNSEICSGQAPTPDQPDTSKRSK | 6 and 7 | 41.6 | 13.2 | 45.2
P335L TWINKLE (enzyme, human, UniProt Q96RR1 43-684, looked up) ETLQALDMPVLPVTATEIRQYLRGHGIPFQDGHSCLRALSPFAESSQLKGQTGVTTSFSLFIDKTTGHFLCMTSLAEGSWEDFQASVEGRGDGAREGFLLSKAPEFEDSEEVRRIWNRAIPLWELPDQEEVQLADTMFGLTKVTDDTLKRFSVRYLRPARSLVFPWFSPGGSGLRGLKLLEAKCQGDGVSYEETTIPRPSAYHNLFGLPLISRRDAEVVLTSRELDSLALNQSTGLPTLTLPRGTTCLPPALLPYLEQFRRIVFWLGDDLRSWEAAKLFARKLNPKRCFLVRLGDQQPRPLEALNGGFNLSRILRTALPAWHKSIVSFRQLREEVLGELSNVEQAAGLRWSRFPDLNRILKGHRKGELTVFTGPTGSGKTTFISEYALDLCSQGVNTLWGSFEISNVRLARVMLTQFAEGRLEDQLDKYDHWADRFEDLPLYFMTFHGQQSIRTVIDTMQHAVYVYDICHVIIDNLQFMMGHEQLSTDRIAAQDYIIGVFRKFATDNNCHVTLVIHPRKEDDDKELQTASIFGSAKASQEADNVLILQDRKLVTGPGKRYLQVSKNRFDGDVGVFPLEFNKNSLTFSIPPKNKARLKKIKDDTGPVAKKPSSGKKGATTQNSEICSGQAPTPDQPDTSKRSK | 6 and 7 and 8 and 9 | 72.3 | 4.7 | 6.4
L381P TWINKLE (enzyme, human, UniProt Q96RR1 43-684, looked up) ETLQALDMPVLPVTATEIRQYLRGHGIPFQDGHSCLRALSPFAESSQLKGQTGVTTSFSLFIDKTTGHFLCMTSLAEGSWEDFQASVEGRGDGAREGFLLSKAPEFEDSEEVRRIWNRAIPLWELPDQEEVQLADTMFGLTKVTDDTLKRFSVRYLRPARSLVFPWFSPGGSGLRGLKLLEAKCQGDGVSYEETTIPRPSAYHNLFGLPLISRRDAEVVLTSRELDSLALNQSTGLPTLTLPRGTTCLPPALLPYLEQFRRIVFWLGDDLRSWEAAKLFARKLNPKRCFLVRPGDQQPRPLEALNGGFNLSRILRTALPAWHKSIVSFRQLREEVLGEPSNVEQAAGLRWSRFPDLNRILKGHRKGELTVFTGPTGSGKTTFISEYALDLCSQGVNTLWGSFEISNVRLARVMLTQFAEGRLEDQLDKYDHWADRFEDLPLYFMTFHGQQSIRTVIDTMQHAVYVYDICHVIIDNLQFMMGHEQLSTDRIAAQDYIIGVFRKFATDNNCHVTLVIHPRKEDDDKELQTASIFGSAKASQEADNVLILQDRKLVTGPGKRYLQVSKNRFDGDVGVFPLEFNKNSLTFSIPPKNKARLKKIKDDTGPVAKKPSSGKKGATTQNSEICSGQAPTPDQPDTSKRSK | 6 and 7 and 5 | 28.6 | 33 | 26.9
